Experimental data reported in PMC3102279.

Columns and labels:
purified protein [1] = substrate: Nc1ncnc2c1ncn2[C@@H]1O[C@H](COP(=O)(O)OP(=O)(O)OP(=O)(O)O)[C@@H](O)[C@H]1O; assay: purified protein; type: biochemical, Homo sapiens; conditions: Mg2+
purified protein [2] = substrate: Nc1ncnc2c1ncn2[C@@H]1O[C@H](COP(=O)(O)OP(=O)(O)OP(=O)(O)O)[C@@H](O)[C@H]1O; assay: purified protein; conditions: Mg2+

B1: Mps1 (Homo sapiens) (protein)
chain: MESEDLSGRELTIDSIMNKVRDIKNKFKNEDLTDELSLNKISADTTDNSGTVNQIMMMANNPEDWLSLLLKLEKNSVPLSDALLNKLIGRYSQAIEALPPDKYGQNESFARIQVRFAELKAIQEPDDARDYFQMARANCKKFAFVHISFAQFELSQGNVKKSKQLLQKAVERGAVPLEMLEIALRNLNLQKKQLLSEEEKKNLSASTVLTAQESFSGSLGHLQNRNNSCDSRGQTTKARFLYGENMPPQDAEIGYRNSLRQTNKTKQSCPFGRVPVNLLNSPDCDVKTDDSVVPCFMKRQTSRSECRDLVVPGSKPSGNDSCELRNLKSVQNSHFKEPLVSDEKSSELIITDSITLKNKTESSLLAKLEETKEYQEPEVPESNQKQWQSKRKSECINQNPAASSNHWQIPELARKVNTEQKHTTFEQPVFSVSKQSPPISTSKWFDPKSICKTPSSNTLDDYMSCFRTPVVKNDFPPACQLSTPYGQPACFQQQQHQILATPLQNLQVLASSSANECISVKGRIYSILKQIGSGGSSKVFQVLNEKKQIYAIKYVNLEEADNQTLDSYRNEIAYLNKLQQHSDKIIRLYDYEITDQYIYMVMECGNIDLNSWLKKKKSIDPWERKSYWKNMLEAVHTIHQHGIVHSDLKPANFLIVDGMLKLIDFGIANQMQPDTTSVVKDSQVGTVNYMPPEAIKDMSSSRENGKSKSKISPKSDVWSLGCILYYMTYGKTPFQQIINQISKLHAIIDPNHEIEFPDIPEKDLQDVLKCCLKRDPKQRISIPELLAHPYVQIQTHPVNQMAKGTTEEMKYVLGQLVGLNSPNSILKAAKTLYEHYSGGESHNSSSSKTFEKKRGKK
Km (purified protein [1]): 4.9 µM

B2: Aurora B (Homo sapiens) (protein)
chain: SNVQPTAAPGQKVMENSSGTPDILTRHFTIDDFEIGRPLGKGKFGNVYLAREKKSHFIVALKVLFKSQIEKEGVEHQLRREIEIQAHLHHPNILRLYNYFYDRRRIYLILEYAPRGELYKELQKSCTFDEQRTATIMEELADALMYCHGKKVIHRDIKPENLLLGLKGELKIADFGWSVHAPSLRRKTMCGTLDYLPPEMIEGRMHNEKVDLWCIGVLCYELLVGNPPFESASHNETYRRIVKVDLKFPASVPMGAQDLISKLLRHNPSERLPLAQVSAHPWVRANSRRVLPPSALQSVA
Km (purified protein [2]): 16.5 µM
